Laboratory results published in patent publication US20080299140A1, “Immunogenic Composition and Peptide Sequences for Prevention and Treatment of an Hsv Condition” (priority 2002, published 2008).
No end group written: not given here.

Molecular target: HLA-DR(α1*0101,α1*1301) (human)
Assay: reference IC50 of the tracer peptide in the HLA class II competition assay

B1: B1 (21-36) (peptide)
peptide: TERVRLVTRHIYNREE
modifications: also: biotinylated when used as tracer
IC50: 276 nM
